Results published in patent US20120316071A1.
Blank lines part the entries; values can stand above or below the substance they belong to.

What was measured:
[1] = target: rHuman IGF-1 sR, (IGF-1 sR), CF (R&D Systems Cat#391-GR) (human) (UniProt P08069); assay: ECL multispot (MSD) binding assay, antigens spotted on plate, 20 nM Fab
[2] = target: rHuman Notch-1/Fc Chimera, CF (R&D Systems Cat#3647-TK) (human) (UniProt P46531); assay: as above
[3] = target: rHuman CD44/Fc Chimera, CF (R&D Systems Cat#3660-CD) (human) (UniProt P16070); assay: as above
[4] = target: Recombinant Human DLL4 (R&D Systems Cat#1506-D4/CF) (human) (UniProt Q9NR61); assay: as above
[5] = target: rHuman CD44/Fc Chimera, CF (R&D Systems Cat#3660-CD) (human) (UniProt P16070); assay: ECL (MSD) multispot binding assay, antigen spotted on plate, 20 nM Fab
[6] = target: rHuman IGF-1 sR, CF (R&D Systems Cat#391-GR) (human) (UniProt P08069); assay: ECL Multispot (MSD), antigen spotted, Fab
[7] = target: rHuman Notch-1/Fc Chimera, CF (R&D Systems Cat#3647-TK) (human) (UniProt P46531); assay: ECL Multispot (MSD), antigen spotted, Fab
[8] = target: rHuman CD44/Fc Chimera, CF (R&D Systems Cat#3660-CD) (human) (UniProt P16070); assay: ECL Multispot (MSD), antigen spotted, Fab
[9] = target: rHuman Erythropoietin R/Fc Chimera, CF (R&D Systems Cat#963-ER) (human) (UniProt P19235); assay: ECL Multispot (MSD), antigen spotted, Fab
[10] = target: rHuman EGF R/Fc Chimera, CF (R&D Systems Cat#344-ER) (human) (UniProt P00533); assay: ECL Multispot (MSD), antigen spotted, Fab
[11] = target: rHuman P-Cadherin/Fc Chimera, CF (R&D Systems Cat#861-PC) (human) (UniProt P22223); assay: ECL Multispot (MSD), antigen spotted, Fab
[12] = target: Recombinant Human DLL4 (R&D Systems Cat#1506-D4/CF) (human) (UniProt Q9NR61); assay: ECL Multispot (MSD), antigen spotted, Fab
[13] = target: rHuman HGF R/c-MET/Fc Chimera, CF (R&D Systems Cat#358-MT/CF) (human) (UniProt P08581); assay: ECL Multispot (MSD), antigen spotted, Fab
[14] = target: rHuman ErbB2/Fc Chimera, CF (R&D Systems Cat#1129-ER) (human) (UniProt P04626); assay: ECL Multispot (MSD), antigen spotted, Fab
[15] = target: rHuman Erythropoietin R/Fc Chimera, CF (R&D Systems Cat#963-ER) (human) (UniProt P19235); assay: ECL (MSD) multispot binding assay, antigen spotted on plate, 20 nM Fab
[16] = target: rHuman IGF-1 sR, CF (R&D Systems Cat#391-GR) (human) (UniProt P08069); assay: MSD multispot ECL, antigen spotted on plate; Fab 0.07438 uM; blank spot 2504
[17] = target: rHuman HGF R/c-MET/Fc Chimera, CF (R&D Systems Cat#358-MT/CF) (human) (UniProt P08581); assay: as above
[18] = target: rHuman ErbB2/Fc Chimera, CF (R&D Systems Cat#1129-ER) (human) (UniProt P04626); assay: as above
[19] = target: rHuman IGF-1 sR, CF (R&D Systems Cat#391-GR) (human) (UniProt P08069); assay: MSD multispot ECL, antigen spotted on plate; Fab 0.2975 uM; blank spot 5019
[20] = target: rHuman HGF R/c-MET/Fc Chimera, CF (R&D Systems Cat#358-MT/CF) (human) (UniProt P08581); assay: as above
[21] = target: rHuman ErbB2/Fc Chimera, CF (R&D Systems Cat#1129-ER) (human) (UniProt P04626); assay: as above
[22] = target: rHuman IGF-1 sR, CF (R&D Systems Cat#391-GR) (human) (UniProt P08069); assay: MSD multispot ECL, antigen spotted on plate; Fab 0.01859 uM; blank spot 1776
[23] = target: rHuman HGF R/c-MET/Fc Chimera, CF (R&D Systems Cat#358-MT/CF) (human) (UniProt P08581); assay: as above
[24] = target: rHuman ErbB2/Fc Chimera, CF (R&D Systems Cat#1129-ER) (human) (UniProt P04626); assay: as above
[25] = target: rHuman IGF-1 sR, CF (R&D Systems Cat#391-GR) (human) (UniProt P08069); assay: MSD multispot ECL, antigen spotted on plate; Fab 1.19 uM; blank spot 24999
[26] = target: rHuman HGF R/c-MET/Fc Chimera, CF (R&D Systems Cat#358-MT/CF) (human) (UniProt P08581); assay: as above
[27] = target: rHuman ErbB2/Fc Chimera, CF (R&D Systems Cat#1129-ER) (human) (UniProt P04626); assay: as above
[28] = target: rHuman P-Cadherin/Fc Chimera, CF (R&D Systems Cat#861-PC) (human) (UniProt P22223); assay: Multispot ECL (MSD), antigen spotted on plate, Fab 0.0625 uM; blank spot 1738
[29] = target: Recombinant Human DLL4 (R&D Systems Cat#1506-D4/CF) (human) (UniProt Q9NR61); assay: as above
[30] = target: rHuman ErbB2/Fc Chimera, CF (R&D Systems Cat#1129-ER) (human) (UniProt P04626); assay: as above
[31] = target: rHuman P-Cadherin/Fc Chimera, CF (R&D Systems Cat#861-PC) (human) (UniProt P22223); assay: Multispot ECL (MSD), antigen spotted on plate, Fab […]; blank spot 6344
[32] = target: Recombinant Human DLL4 (R&D Systems Cat#1506-D4/CF) (human) (UniProt Q9NR61); assay: as above
[33] = target: rHuman ErbB2/Fc Chimera, CF (R&D Systems Cat#1129-ER) (human) (UniProt P04626); assay: as above
[34] = target: rHuman P-Cadherin/Fc Chimera, CF (R&D Systems Cat#861-PC) (human) (UniProt P22223); assay: Multispot ECL (MSD), antigen spotted on plate, Fab 0.00391 uM; blank spot 576
[35] = target: Recombinant Human DLL4 (R&D Systems Cat#1506-D4/CF) (human) (UniProt Q9NR61); assay: as above
[36] = target: rHuman ErbB2/Fc Chimera, CF (R&D Systems Cat#1129-ER) (human) (UniProt P04626); assay: as above
[37] = target: rHuman P-Cadherin/Fc Chimera, CF (R&D Systems Cat#861-PC) (human) (UniProt P22223); assay: Multispot ECL (MSD), antigen spotted on plate, Fab 0.01563 uM; blank spot 906
[38] = target: Recombinant Human DLL4 (R&D Systems Cat#1506-D4/CF) (human) (UniProt Q9NR61); assay: as above
[39] = target: rHuman ErbB2/Fc Chimera, CF (R&D Systems Cat#1129-ER) (human) (UniProt P04626); assay: as above
[40] = target: rHuman IGF-1 sR, CF (R&D Systems Cat#391-GR) (human) (UniProt P08069); assay: ECL multispot (MSD) assay, antigen spotted on plate, 20 nM Fab
[41] = target: rHuman Notch-1/Fc Chimera, CF (R&D Systems Cat#3647-TK) (human) (UniProt P46531); assay: as above
[42] = target: rHuman CD44/Fc Chimera, CF (R&D Systems Cat#3660-CD) (human) (UniProt P16070); assay: as above
[43] = target: rHuman EGF R/Fc Chimera, CF (R&D Systems Cat#344-ER) (human) (UniProt P00533); assay: as above
[44] = target: rHuman P-Cadherin/Fc Chimera, CF (R&D Systems Cat#861-PC) (human) (UniProt P22223); assay: as above
[45] = target: Recombinant Human DLL4 (R&D Systems Cat#1506-D4/CF) (human) (UniProt Q9NR61); assay: as above
[46] = target: rHuman P-Cadherin/Fc Chimera, CF (R&D Systems Cat#861-PC) (human) (UniProt P22223); assay: ECL (MSD) multispot binding assay, antigen spotted on plate, 20 nM Fab
[47] = target: rHuman HGF R/c-MET/Fc Chimera, CF (R&D Systems Cat#358-MT/CF) (human) (UniProt P08581); assay: as above

Substance: Fab VH3-23_IGHD2-21*01>3_IGHJ6*01 H100E/S108P/Y113G Y110W & V2-13_IGLJ2*01
- ECL multispot signal (ratio to blank; column not labelled) [1]: 2.3
- ECL multispot signal (ratio to blank; column not labelled) [2]: 3.2
- ECL multispot signal (ratio to blank; column not labelled) [3]: 2.1
- ECL multispot signal (ratio to blank; column not labelled) [4]: 3.9

Substance: Fab VH3-23_IGHD2-21*01>3_IGHJ6*01 H100E/S108P/Y113G/Y111E & V2-13_IGLJ2*01
- ECL signal/blank ratio [15]: 2.9

Substance: Fab VH1-46_IGHD6-13*01_IGHJ4*01 & L2_IGKJ1*01
- ECL signal [16]: 5800
- ECL signal [17]: 6610
- ECL signal [18]: 7550
- ECL signal [19]: 17400
- ECL signal [20]: 17400
- ECL signal [21]: 15100
- ECL signal [22]: 3780
- ECL signal [23]: 4570
- ECL signal [24]: 5530
- ECL signal [25]: 35200
- ECL signal [26]: 45500
- ECL signal [27]: 38400

Substance: Fab VH3-23_IGHD2-21*01>3_IGHJ6*01 H100E/S108P/Y113G/Y110R & V2-13_IGLJ2*01
- ECL signal/blank ratio [46]: 3.3
- ECL signal/blank ratio [47]: 3.9

The remaining lines, values ahead:

- ECL signal/blank ratio [5]: 3.4
Substance: Fab VH3-23_IGHD2-21*01>3_IGHJ6*01 H100E/S108P/Y113G/Y111W & V2-13_IGLJ2*01

- ECL signal/blank ratio [6]: 2.3
- ECL signal/blank ratio [7]: 3.3
- ECL signal/blank ratio [8]: 2.5
- ECL signal/blank ratio [9]: 1.6
- ECL signal/blank ratio [10]: 2.1
- ECL signal/blank ratio [11]: 1.4
- ECL signal/blank ratio [12]: 2.2
- ECL signal/blank ratio [13]: 2.3
Substance: Fab VH3-23_IGHD3-10*01>3_IGHJ6*01 Y112G & O12_IGKJ1*01

- ECL signal/blank ratio [6]: 1.4
- ECL signal/blank ratio [7]: 1.1
- ECL signal/blank ratio [9]: 1.6
- ECL signal/blank ratio [11]: 1.1
- ECL signal/blank ratio [12]: 1.2
- ECL signal/blank ratio [13]: 0.8
- ECL signal/blank ratio [14]: 1.3
Substance: Fab VH3-23_IGHD3-10*01>3_IGHJ6*01 Y112A & O12_IGKJ1*01

- ECL signal [28]: 7740
- ECL signal [29]: 8050
- ECL signal [30]: 9030
- ECL signal [31]: 25500
- ECL signal [32]: 27700
- ECL signal [33]: 29600
- ECL signal [34]: 1960
- ECL signal [35]: 1550
- ECL signal [36]: 1670
- ECL signal [37]: 4940
- ECL signal [38]: 4020
- ECL signal [39]: 4500
Substance: Fab VH1-46_IGHD2-15*01_IGHJ2*01 & L2_IGKJ1*01

- ECL signal/blank ratio (read-out not given) [40]: 1.2
- ECL signal/blank ratio (read-out not given) [41]: 3
- ECL signal/blank ratio (read-out not given) [42]: 2.2
- ECL signal/blank ratio (read-out not given) [43]: 9.1
- ECL signal/blank ratio (read-out not given) [44]: 30.6
- ECL signal/blank ratio (read-out not given) [45]: 2.7
Substance: Fab VH3-23_IGHD2-21*01>3_IGHJ6*01 H100E/S108P V64A & V2-13_IGLJ2*01
